Laboratory results as given in publication PMC8446450, “Autosomal Recessive Cutis Laxa 1C Mutations Disrupt the Structure and Interactions of Latent TGFβ Binding Protein-4” (Frontiers in Genetics, 2021).

T1: Tropoelastin (SHELdelta26A) (biotin where immobilised on streptavidin biosensors (position not given))
T1 chain: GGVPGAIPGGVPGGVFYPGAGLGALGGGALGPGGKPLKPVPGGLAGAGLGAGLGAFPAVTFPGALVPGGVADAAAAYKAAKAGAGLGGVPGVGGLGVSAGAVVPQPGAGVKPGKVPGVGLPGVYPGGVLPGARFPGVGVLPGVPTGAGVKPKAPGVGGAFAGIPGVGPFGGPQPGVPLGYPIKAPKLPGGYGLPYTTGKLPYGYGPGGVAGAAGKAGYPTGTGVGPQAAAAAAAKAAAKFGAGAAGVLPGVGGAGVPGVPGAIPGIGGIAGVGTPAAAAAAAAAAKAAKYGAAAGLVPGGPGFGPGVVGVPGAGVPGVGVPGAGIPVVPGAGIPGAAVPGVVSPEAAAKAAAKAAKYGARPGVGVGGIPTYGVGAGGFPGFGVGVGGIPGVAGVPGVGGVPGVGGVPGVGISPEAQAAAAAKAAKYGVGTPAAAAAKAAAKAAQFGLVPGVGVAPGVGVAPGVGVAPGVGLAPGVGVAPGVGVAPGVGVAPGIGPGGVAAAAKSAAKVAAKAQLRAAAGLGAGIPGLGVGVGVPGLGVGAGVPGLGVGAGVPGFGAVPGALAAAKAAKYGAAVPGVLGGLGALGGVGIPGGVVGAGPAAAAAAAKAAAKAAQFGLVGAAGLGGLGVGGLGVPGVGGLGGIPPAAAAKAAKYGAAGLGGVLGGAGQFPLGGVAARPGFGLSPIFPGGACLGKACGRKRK

B1: Latent TGFβ binding protein-4 (LTBP4S) C-terminal region, ARCL1C mutant C1186R (domain or fragment)
chain: RECYFDTAAPDACDNILARNVTWQECCCTVGEGWGSGCRIQQRPGTETAEYQSLCPHGRGYLAPSGDLSLRRDVDECQLFRDQVCKSGVCVNTAPGYSCYCSNGYYYHTQRLECIDNDECADEEPACEGGRCVNTVGSYHCTCEPPLVLDGSQRRCVSNESQSLDDNLGVCWQEVGADLVCSHPRLDRQATYTECCCLYGEAWGMDCALCPAQDSDDFEALCNVLRPPAYSPPRPGGFGLPYEYGPDLGPPYQGLPYGPELYPPPALPYDPYPPPPGPFARREAPYGAPRFDMPDFEDDGGPYGESEAPAPPGPGTRWPYRSRDTRRSFPEPEEPPEGGSYAGSLAEPYEELEAEECGILDGCTNGRCVRVPEGFTCRCFDGYRLDMTRMACVDINECDEAEAASPLCVNARCLNTDGSFRCICRPGFAPTHQPHHCAPARPRA

Legend:
[1] = target: Latent TGFβ binding protein-4 (LTBP4S) C-terminal region, ARCL1C mutant C1186R (human); experiment: SPR; ProteOn, LTBP4 C-terminal constructs amine-coupled on GLC chip, fibrillin-1 PF3 injected 100-3.1 nM, 10 mM HEPES, 150 mM NaCl, pH 7.4, 0.005% Tween-20, 25°C; steady state (equilibrium) analysis
[2] = target: Tropoelastin (SHELdelta26A); experiment: BLI; OctetRED96, biotinylated tropoelastin on streptavidin biosensors, LTBP4 C-terminal constructs 375-23.4 nM, 10 mM HEPES, 150 mM NaCl, pH 7.4, 0.005% Tween-20, 25°C; steady state analysis
[3] = target: T1, Tropoelastin (SHELdelta26A); experiment: BLI

Row | Molecule | Kd [1] [nM] | Kd [2] [nM] | Kd [3] [nM]
1 | Fibrillin-1 PF3 fragment (from UniProt P35555 45-722) (domain or fragment) | 40.2 |  | 
2 | B1 |  | 154 | 55.9
